This note sets out measurements from the Immune Epitope Database (IEDB).

Experiment [1] addresses HLA-B*15:01. The experiment can be described thus: IEDB peptide-MHC binding, purified MHC/direct/fluorescence; filed as Kd, often an IC50 or EC50 that approximates it; ≥ and ≤ were set here for values at or beyond the usual limits of such assays.
The target in experiment [2] is HLA-A*02:19. Described as above.
Experiment [3] has as its target HLA-B*39:01. Described as above.
Experiment [4] deals with HLA-B*15:17. Described as above.
Another experiment concerns the target HLA-B*18:01. The experiment is described as above.
The target of experiment [5] is HLA-A*02:12. Described as above.
Experiment [6] addresses HLA-B*27:03. Described as above.
Experiment [7] has as its target HLA-A*26:01. Described as above.
A further experiment concerns the target HLA-B*57:01. The description is as above.
Experiment [8] concerns the target HLA-B*46:01. Described as above.
The target in experiment [9] is HLA-A*02:16. The description is as above.
Experiment [10] deals with HLA-A*24:03. Described as above.
Experiment [11] addresses HLA-B*51:01. The description is as above. The following applies: source organism: Encephalitozoon cuniculi GB-M1.
Experiment [12] has as its target HLA-A*03:01. The experiment is described as above.
In another experiment the target is HLA-A*01:01. As to the kind of experiment: IEDB peptide-MHC binding, purified MHC/competitive/fluorescence; filed as Kd, often an IC50 or EC50 that approximates it; ≥ and ≤ were set here for values at or beyond the usual limits of such assays.
Experiment [13] concerns the target HLA-B*15:01. Described as above.
For experiment [14], the target named is HLA-A*03:01. The experiment is described as above.
The target in experiment [15] is HLA-A*02:16. Described as above. The note with it: source organism: Homo sapiens.
Another experiment concerns the target HLA-A*29:02. The description is as above. The following applies: source organism: Homo sapiens.
Experiment [16] has as its target HLA-A*24:03. Described as above. The note with it: source organism: Homo sapiens.
Experiment [17] has as its target HLA-A*02:19. The description is as above. The following applies: source organism: Homo sapiens.
The target of experiment [18] is HLA-A*02:01. The experiment is described as above. The note with it: source organism: Homo sapiens.
In experiment [19] the target is HLA-A*68:02. The description is as above. The note with it: source organism: Homo sapiens.
The target of experiment [20] is HLA-B*39:01. The experiment is described as above. The following applies: source organism: Homo sapiens.
The target of experiment [21] is HLA-B*15:17. The experiment is described as above. The note with it: source organism: Homo sapiens.
Experiment [22] has as its target HLA-B*51:01. The experiment is described as above.
Experiment [23] concerns the target HLA-A*02:12. Described as above. The following applies: source organism: Homo sapiens.
The target of experiment [24] is HLA-B*27:03. Described as above. The following applies: source organism: Homo sapiens.
In experiment [25] the target is HLA-A*26:01. Described as above. The following applies: source organism: Homo sapiens.
In experiment [26] the target is HLA-A*69:01. The experiment is described as above. The note with it: source organism: Homo sapiens.
Experiment [27] has as its target HLA-B*46:01. The description is as above. The following applies: source organism: Homo sapiens.
Experiment [28] addresses HLA-A*02:11. The description is as above. The following applies: source organism: Homo sapiens.
The target of experiment [29] is HLA-A*02:03. The description is as above. The following applies: source organism: Homo sapiens.
The target in experiment [30] is HLA-A*02:01. The experiment can be described thus: IEDB peptide-MHC binding, purified MHC/direct/fluorescence; filed as Kd, often an IC50 or EC50 that approximates it; ≥ and ≤ were set here for values at or beyond the usual limits of such assays. The note with it: source organism: Yersinia enterocolitica subsp. enterocolitica 8081.
Experiment [31] addresses HLA-A*68:02. Described as above. The note with it: source organism: Yersinia enterocolitica subsp. enterocolitica 8081.
Experiment [32] concerns the target HLA-A*69:01. The experiment is described as above. The note with it: source organism: Yersinia enterocolitica subsp. enterocolitica 8081.
For experiment [33], the target named is HLA-A*02:11. The experiment is described as above. The following applies: source organism: Yersinia enterocolitica subsp. enterocolitica 8081.
Experiment [34] has as its target HLA-A*02:03. Described as above. The note with it: source organism: Yersinia enterocolitica subsp. enterocolitica 8081.
For the next experiment, the target named is HLA-B*07:02. The experiment can be described thus: IEDB peptide-MHC binding, purified MHC/competitive/fluorescence; filed as Kd, often an IC50 or EC50 that approximates it; ≥ and ≤ were set here for values at or beyond the usual limits of such assays.
For a further experiment, the target named is HLA-B*08:01. Described as above. The note with it: source organism: Escherichia coli 536.
Setting [35] is: source organism: Mycobacterium tuberculosis.
[36] abbreviates: source organism: Encephalitozoon cuniculi GB-M1.
Where [37] appears, read: source organism: Yersinia pestis Nepal516.
The mark [38] stands for this setting: source organism: Yersinia enterocolitica subsp. enterocolitica 8081.
[39] abbreviates: source organism: Escherichia coli 536.

Bounds are passed on as bounds.

The Kd is the free concentration of one partner at which half of the binding sites on the other are occupied at equilibrium, for simple one-to-one binding. A low value points to higher affinity. For the sequence SIYYTLVRM, the Kd with HLA-B*15:01 [1] (setting [35]) is not below 20 µM; with HLA-A*02:19 [2] (setting [35]) it was not below 20 µM; with HLA-B*39:01 [3] (setting [35]) it was not below 20 µM; in the experiment with HLA-B*15:17 [4] (setting [35]) it was 0.256 µM; with HLA-B*18:01 (setting [35]), not below 20 µM; with HLA-A*02:12 [5] (setting [35]), not below 20 µM. Also, the Kd with HLA-B*27:03 [6] (setting [35]), with HLA-A*26:01 [7] (setting [35]), in the experiment with HLA-B*57:01 (setting [35]) and with HLA-B*46:01 [8] (setting [35]) was not below 20 µM throughout.
On to HPYVFCALL, for which the Kd with HLA-A*02:16 [9] (setting [36]) is not below 20 µM; in the experiment with HLA-A*24:03 [10] (setting [36]), not below 20 µM; in the experiment with HLA-B*15:01 [1] (setting [36]), not below 20 µM; in the experiment with HLA-A*02:19 [2] (setting [36]) it was not below 20 µM; in the experiment with HLA-B*18:01 (setting [36]), not below 20 µM; with HLA-B*51:01 [11], 2.92 µM. For the same sequence, the Kd with HLA-A*02:12 [5] (setting [36]), in the experiment with HLA-B*27:03 [6] (setting [36]), with HLA-A*03:01 [12] (setting [36]), in the experiment with HLA-A*26:01 [7] (setting [36]), with HLA-B*57:01 (setting [36]) and with HLA-B*46:01 [8] (setting [36]) was not below 20 µM each time.
Consider NTLGITHLY, for which the Kd with HLA-A*01:01 (setting [37]) was 0.0448 µM; with HLA-B*15:01 [13] (setting [37]), 3.02 µM; in the experiment with HLA-A*03:01 [14] (setting [37]), not below 20 µM.
In the case of SSDLRSWTF, the Kd was not below 20 µM with HLA-A*02:16 [15]; not below 20 µM with HLA-A*29:02; not below 20 µM in the experiment with HLA-A*24:03 [16]; 0.538 µM with HLA-A*01:01 (source organism: Homo sapiens); not below 20 µM with HLA-B*15:01 [13] (source organism: Homo sapiens); not below 20 µM with HLA-A*02:19 [17]. The Kd with HLA-A*02:01 [18], with HLA-A*68:02 [19], with HLA-B*39:01 [20], with HLA-B*15:17 [21], in the experiment with HLA-B*51:01 [22] (source organism: Homo sapiens) and in the experiment with HLA-A*02:12 [23] was not below 20 µM in each case. Moreover, the Kd in the experiment with HLA-B*27:03 [24], with HLA-A*03:01 [14] (source organism: Homo sapiens), with HLA-A*26:01 [25], in the experiment with HLA-A*69:01 [26], with HLA-B*46:01 [27] and with HLA-A*02:11 [28] was not below 20 µM each time. The Kd with HLA-A*02:03 [29] is not below 20 µM.
KSRQGDTKV: the Kd with HLA-A*02:16 [9] (setting [38]), in the experiment with HLA-A*24:03 [10] (setting [38]), with HLA-B*15:01 [1] (setting [38]), with HLA-A*02:19 [2] (setting [38]), with HLA-A*02:01 [30] and with HLA-A*68:02 [31] was not below 20 µM in each case. Further, the Kd with HLA-B*39:01 [3] (setting [38]) is not below 20 µM; in the experiment with HLA-B*15:17 [4] (setting [38]), 0.28 µM; with HLA-B*18:01 (setting [38]) it was not below 20 µM; with HLA-A*02:12 [5] (setting [38]), not below 20 µM; in the experiment with HLA-B*27:03 [6] (setting [38]), not below 20 µM; with HLA-A*03:01 [12] (setting [38]), not below 20 µM. The Kd with HLA-A*26:01 [7] (setting [38]), with HLA-B*57:01 (setting [38]), with HLA-A*69:01 [32], with HLA-B*46:01 [8] (setting [38]), with HLA-A*02:11 [33] and with HLA-A*02:03 [34] was not below 20 µM each time.
On to HPYKIPATV, for which the results for the dissociation constant (Kd) with HLA-B*51:01 [22] (setting [39]), with HLA-B*07:02 (setting [39]) and with HLA-B*08:01 were 0.309 µM, 0.197 µM and 0.398 µM, respectively.
In the experiment with HLA-B*07:02 (source organism: Salmonella enterica subsp. enterica serovar Typhi), LPSWLLAPV had a Kd of 0.066 µM.
